From patent publication US20130115645

Biological target: human prothrombin (Enzyme Research Laboratories), P00734

B1: Fibrinogen-like protein 2 (FGL-2)/fibroleukin, human (protein)
chain: NNETEEIKDERAKDVCPVRLESRGKCEEAGECPYQVSLPPLTIQLPKQFSRIEEVFKEVQNLKEIVNSLKKSCQDCKLQADDNGDPGRNGLLLPSTGAPGEVGDNRVRELESEVNKLSSELKNAKEEINVLHGRLEKLNLVNMNNIENYVDSKVANLTFVVNSLDGKCSKCPSQEQIQSRPVQHLIYKDCSDYYAIGKRSSETYRVTPDPKNSSFEVYCDMETMGGGWTVLQARLDGSTNFTRTWQDYKAGFGNLRREFWLGNDKIHLLTKSKEMILRIDLEDFNGVELYALYDQFYVANEFLKYRLHVGNYNGTAGDALRFNKHYNHDLKFFTTPDKDNDRYPSGNCGLYYSSGWWFDACLSANLNGKYYHQKYRGVRNGIFWGTWPGVSEAHPGGYKSSFKEAKMMIRPKHFKP
FGL-2 prothrombinase activity (thrombin generation assay, chromogenic substrate, 405 nm): FGL-2 prothrombinase activity in HUVEC was only observed following maximal stimulation with TNFα
